From the supplement of paper PMC6757056 come the findings set out here.

To fix the notation:
B1: library; a variant is named by its letters at N, in order (parent)
chain: GCUGUCACCGGUGCUUGGUACGUUAUAUUCAGCCGGUCUGAUGAGUCUNNNNNNAGACGAAACAGC

± gives the standard deviation of the averaged measurements.

The variants in series [1] derive from B1. Put plainly: normalized RNA/DNA level without ligand (relative to sTRSVctl = 100) (log10 (% of sTRSVctl)); HEK293T overexpressing SLC46A1; higher = less ribozyme self-cleavage, higher mRNA level. As to conditions: without (6R,S)-folinic acid; ligand present: no. The procedure, abridged: (§1)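 RNA level was computed as RNA reads over DNA reads divided by a spiked-in non-cleaving sequence or by the top sequences, then scaled and log-transformed. Scaling was ×100 with log10, the top group was 25 sequences, and the threshold was ≥100 DNA reads. The reads came from HEK293T cells transfected at 4 µg per 6-well well with ribozyme switch library plasmids (mCherry, or eGFP in some ligand experiments). Total RNA was extracted with EDTA 72 h after transfection, with any ligand added 1 h before it.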

The variants in series [2] derive from B1. Put plainly: normalized RNA/DNA level with ligand (relative to sTRSVctl = 100) (log10 (% of sTRSVctl)); HEK293T overexpressing SLC46A1; ligand concentration (+) RNA-Seq: 6 mM; higher = less ribozyme self-cleavage, higher mRNA level. The settings on record: with (6R,S)-folinic acid; ligand present: yes. The procedure, abridged: as §1

Consider GCUGUCACCGGUGCUUGGUACGUUAUAUUCAGCCGGUCUGAUGAGUCUGGCUGUAGACGAAACAGC, for which the “normalized RNA/DNA level without ligand (log10)” value in series [1] stood at 2.067 ± 0.016. In addition, in series [2], the “normalized RNA/DNA level with ligand (log10)” value came out at 2.066 ± 0.019.
The like results for GCUGUCACCGGUGCUUGGUACGUUAUAUUCAGCCGGUCUGAUGAGUCUGGCUGCAGACGAAACAGC were, in that order, 2.07 ± 0.0054 and 2.05 ± 0.021.
The matching figures for GCUGUCACCGGUGCUUGGUACGUUAUAUUCAGCCGGUCUGAUGAGUCUGGCUGAAGACGAAACAGC: 2.094 ± 0.014 and 2.08 ± 0.052.
Turning to GCUGUCACCGGUGCUUGGUACGUUAUAUUCAGCCGGUCUGAUGAGUCUGGCUGGAGACGAAACAGC, the “normalized RNA/DNA level without ligand (log10)” value in series [1] was 2.064 ± 0.0042. For the same variant, the “normalized RNA/DNA level with ligand (log10)” value in series [2] was 2.05 ± 0.046.
The matching figures for GCUGUCACCGGUGCUUGGUACGUUAUAUUCAGCCGGUCUGAUGAGUCUAGCUCCAGACGAAACAGC: 2.095 ± 0.0069 and 2.04 ± 0.042.
The matching figures for GCUGUCACCGGUGCUUGGUACGUUAUAUUCAGCCGGUCUGAUGAGUCUAGCUCGAGACGAAACAGC: 1.99 ± 0.024 and 1.998 ± 0.0042.
The matching figures for GCUGUCACCGGUGCUUGGUACGUUAUAUUCAGCCGGUCUGAUGAGUCUAGCUCAAGACGAAACAGC: 2.07 ± 0.026 and 2.01 ± 0.04.
GCUGUCACCGGUGCUUGGUACGUUAUAUUCAGCCGGUCUGAUGAGUCUAGCUCUAGACGAAACAGC: in series [1], the “normalized RNA/DNA level without ligand (log10)” value was found to be 2.02 ± 0.039. Moreover, the “normalized RNA/DNA level with ligand (log10)” value in series [2] came to 2.055 ± 0.0097.
The matching figures for GCUGUCACCGGUGCUUGGUACGUUAUAUUCAGCCGGUCUGAUGAGUCUAGGAAAAGACGAAACAGC: 1.942 ± 0.0081 and 1.99 ± 0.04.
For the variant GCUGUCACCGGUGCUUGGUACGUUAUAUUCAGCCGGUCUGAUGAGUCUUGCUGUAGACGAAACAGC, the “normalized RNA/DNA level without ligand (log10)” value in series [1] was 2.015 ± 0.0082. The “normalized RNA/DNA level with ligand (log10)” value in series [2] stood at 1.995 ± 0.0073.
The matching figures for GCUGUCACCGGUGCUUGGUACGUUAUAUUCAGCCGGUCUGAUGAGUCUUGCUGCAGACGAAACAGC: 2.038 ± 0.018 and 2.01 ± 0.049.
The like results for GCUGUCACCGGUGCUUGGUACGUUAUAUUCAGCCGGUCUGAUGAGUCUCGCUUCAGACGAAACAGC were, in that order, 2.1105 ± 0.0021 and 2.09 ± 0.066.
The like results for GCUGUCACCGGUGCUUGGUACGUUAUAUUCAGCCGGUCUGAUGAGUCUCGCUUAAGACGAAACAGC were, in that order, 2.002 ± 0.011 and 2.014 ± 0.019.
Consider GCUGUCACCGGUGCUUGGUACGUUAUAUUCAGCCGGUCUGAUGAGUCUCGCUUGAGACGAAACAGC, for which the “normalized RNA/DNA level without ligand (log10)” value in series [1] was 2.066 ± 0.018. Moreover, the “normalized RNA/DNA level with ligand (log10)” value in series [2] is 2.041 ± 0.015.
The like results for GCUGUCACCGGUGCUUGGUACGUUAUAUUCAGCCGGUCUGAUGAGUCUCGCUGAAGACGAAACAGC were, in that order, 2.075 ± 0.003 and 2.05 ± 0.03.
The like results for GCUGUCACCGGUGCUUGGUACGUUAUAUUCAGCCGGUCUGAUGAGUCUCGCUGUAGACGAAACAGC were, in that order, 2.03 ± 0.038 and 2 ± 0.02.
The matching figures for GCUGUCACCGGUGCUUGGUACGUUAUAUUCAGCCGGUCUGAUGAGUCUCGCUGGAGACGAAACAGC: 1.974 ± 0.0042 and 2.016 ± 0.0049.
Consider GCUGUCACCGGUGCUUGGUACGUUAUAUUCAGCCGGUCUGAUGAGUCUCGCUCGAGACGAAACAGC, for which, in series [1], the “normalized RNA/DNA level without ligand (log10)” value amounted to 2.047 ± 0.0074. For the same variant, the “normalized RNA/DNA level with ligand (log10)” value in series [2] amounted to 2.018 ± 0.015.
The like results for GCUGUCACCGGUGCUUGGUACGUUAUAUUCAGCCGGUCUGAUGAGUCUCGCUCCAGACGAAACAGC were, in that order, 2.082 ± 0.015 and 2.057 ± 0.017.
The matching figures for GCUGUCACCGGUGCUUGGUACGUUAUAUUCAGCCGGUCUGAUGAGUCUCGCUCUAGACGAAACAGC: 2.1 ± 0.033 and 2.06 ± 0.033.
The like results for GCUGUCACCGGUGCUUGGUACGUUAUAUUCAGCCGGUCUGAUGAGUCUGGGAAAAGACGAAACAGC were, in that order, 1.99 ± 0.0091 and 2.02 ± 0.036.
As for GCUGUCACCGGUGCUUGGUACGUUAUAUUCAGCCGGUCUGAUGAGUCUGGCUUAAGACGAAACAGC, in series [1], the “normalized RNA/DNA level without ligand (log10)” value worked out at 2.0768 ± 0.0012. The “normalized RNA/DNA level with ligand (log10)” value in series [2] came to 2.03 ± 0.03.
The like results for GCUGUCACCGGUGCUUGGUACGUUAUAUUCAGCCGGUCUGAUGAGUCUGGCUUUAGACGAAACAGC were, in that order, 2.079 ± 0.0033 and 2.041 ± 0.013.
For GCUGUCACCGGUGCUUGGUACGUUAUAUUCAGCCGGUCUGAUGAGUCUGGCUUCAGACGAAACAGC, in series [1], the “normalized RNA/DNA level without ligand (log10)” value was 2.085 ± 0.0026. Further, the “normalized RNA/DNA level with ligand (log10)” value in series [2] worked out at 2.08 ± 0.067.
With GCUGUCACCGGUGCUUGGUACGUUAUAUUCAGCCGGUCUGAUGAGUCUAGCUUCAGACGAAACAGC, in series [1], the “normalized RNA/DNA level without ligand (log10)” value stood at 2.0594 ± 0.00028. In addition, the “normalized RNA/DNA level with ligand (log10)” value in series [2] was 2.045 ± 0.011.
On to GCUGUCACCGGUGCUUGGUACGUUAUAUUCAGCCGGUCUGAUGAGUCUAGCUUAAGACGAAACAGC, for which, in series [1], the “normalized RNA/DNA level without ligand (log10)” value worked out at 1.996 ± 0.0022. Further, the “normalized RNA/DNA level with ligand (log10)” value in series [2] is 2.01 ± 0.062.
The matching figures for GCUGUCACCGGUGCUUGGUACGUUAUAUUCAGCCGGUCUGAUGAGUCUAGCUUUAGACGAAACAGC: 2.014 ± 0.0092 and 2.016 ± 0.018.
With GCUGUCACCGGUGCUUGGUACGUUAUAUUCAGCCGGUCUGAUGAGUCUCGGAACAGACGAAACAGC, the “normalized RNA/DNA level without ligand (log10)” value in series [1] is 1.984 ± 0.0056. Besides, the “normalized RNA/DNA level with ligand (log10)” value in series [2] came to 2 ± 0.034.
The matching figures for GCUGUCACCGGUGCUUGGUACGUUAUAUUCAGCCGGUCUGAUGAGUCUCGGAAAAGACGAAACAGC: 1.9343 ± 0.0017 and 1.98 ± 0.045.
On to GCUGUCACCGGUGCUUGGUACGUUAUAUUCAGCCGGUCUGAUGAGUCUUGCUUAAGACGAAACAGC, for which the “normalized RNA/DNA level without ligand (log10)” value in series [1] turned out to be 2.003 ± 0.0057. In series [2], the “normalized RNA/DNA level with ligand (log10)” value came to 2.03 ± 0.026.
The like results for GCUGUCACCGGUGCUUGGUACGUUAUAUUCAGCCGGUCUGAUGAGUCUUGCUUCAGACGAAACAGC were, in that order, 2.04 ± 0.027 and 2.04 ± 0.043.
Turning to GCUGUCACCGGUGCUUGGUACGUUAUAUUCAGCCGGUCUGAUGAGUCUUGCUUUAGACGAAACAGC, the “normalized RNA/DNA level without ligand (log10)” value in series [1] was determined as 2.016 ± 0.0073. Also, the “normalized RNA/DNA level with ligand (log10)” value in series [2] came out at 2.032 ± 0.0036.
The like results for GCUGUCACCGGUGCUUGGUACGUUAUAUUCAGCCGGUCUGAUGAGUCUUGCUCCAGACGAAACAGC were, in that order, 2.062 ± 0.0087 and 2.03 ± 0.081.
Turning to GCUGUCACCGGUGCUUGGUACGUUAUAUUCAGCCGGUCUGAUGAGUCUAGCUGUAGACGAAACAGC, the “normalized RNA/DNA level without ligand (log10)” value in series [1] is 2.039 ± 0.012. For the same variant, the “normalized RNA/DNA level with ligand (log10)” value in series [2] was determined as 2.032 ± 0.016.
The matching figures for GCUGUCACCGGUGCUUGGUACGUUAUAUUCAGCCGGUCUGAUGAGUCUAGCUGGAGACGAAACAGC: 2.05 ± 0.0052 and 2.06 ± 0.031.
The matching figures for GCUGUCACCGGUGCUUGGUACGUUAUAUUCAGCCGGUCUGAUGAGUCUAGCUGCAGACGAAACAGC: 2.038 ± 0.014 and 2.05 ± 0.022.
On to GCUGUCACCGGUGCUUGGUACGUUAUAUUCAGCCGGUCUGAUGAGUCUAGCUGAAGACGAAACAGC, for which, in series [1], the “normalized RNA/DNA level without ligand (log10)” value worked out at 2.0496 ± 0.0016. The “normalized RNA/DNA level with ligand (log10)” value in series [2] was determined as 2.028 ± 0.014.
The matching figures for GCUGUCACCGGUGCUUGGUACGUUAUAUUCAGCCGGUCUGAUGAGUCUGGCUCGAGACGAAACAGC: 2.067 ± 0.014 and 2.03 ± 0.042.
The matching figures for GCUGUCACCGGUGCUUGGUACGUUAUAUUCAGCCGGUCUGAUGAGUCUGGCUCUAGACGAAACAGC: 2.087 ± 0.0098 and 2.05 ± 0.038.
Take GCUGUCACCGGUGCUUGGUACGUUAUAUUCAGCCGGUCUGAUGAGUCUGGCUCCAGACGAAACAGC: in series [1], the “normalized RNA/DNA level without ligand (log10)” value amounted to 2.0314 ± 0.0019. Moreover, the “normalized RNA/DNA level with ligand (log10)” value in series [2] came to 2.02 ± 0.046.
The matching figures for GCUGUCACCGGUGCUUGGUACGUUAUAUUCAGCCGGUCUGAUGAGUCUUGGAAAAGACGAAACAGC: 1.919 ± 0.0043 and 1.98 ± 0.028.
